These results are taken from patent US20100196267A1.

Assay [1] has as its target HLA-DR (human). In words: indirect FACS, FITC-GAH Fc 2nd Ab, Namalwa cells (none 2.5); control antibody.
In assay [2] the target is HLA-DR (human). In words: indirect flow cytometry, FITC-GAH Fc 2nd Ab, Raji cells (none 6.9); negative control antibody.
Assay [3] deals with antigen on dog lymphoma cells recognised by L243 and hL243 (dog). Briefly: flow cytometry on dog lymphoma aspirate, humanized MAbs (none 3.24); control antibody. For orientation: A flow cytometer gives signals particle by particle.
The target in assay [4] is HLA-DR (human). Briefly: indirect FACS, FITC-GAH Fc 2nd Ab, WSU-FSCCL cells (none 2.6); control antibody.
In assay [5] the target is HLA-DR (human). Briefly: indirect flow cytometry, FITC-GAH Fc 2nd Ab, Namalwa cells (none 2.6); negative control antibody.
In assay [6] the target is HLA-DR (human). Briefly: indirect flow cytometry, FITC-GAH Fc 2nd Ab, SU-DHL-6 cells (none 4.6); negative control antibody.
The target in assay [7] is HLA-DR (human). In words: indirect FACS, FITC-GAH Fc 2nd Ab, SU-DHL-6 cells (none 4.6); control antibody.
Assay [8] addresses HLA-DR (human). Briefly: indirect FACS, FITC-GAH Fc 2nd Ab, Raji cells (none 6.8); control antibody.
Assay [9] addresses HLA-DR (human). In words: indirect flow cytometry, FITC-GAH Fc 2nd Ab, Daudi cells (none 3.2); negative control antibody.
Assay [10] addresses HLA-DR (human). Briefly: indirect flow cytometry, FITC-GAH Fc 2nd Ab, RL cells (none 2.4); negative control antibody.
In assay [11] the target is HLA-DR (human). In words: indirect FACS, FITC-GAH Fc 2nd Ab, Ramos cells (none 3.1); control antibody.
Assay [12] has as its target HLA-DR (human). Briefly: indirect flow cytometry on Namalwa cells, FITC-GAH 2nd Ab (none 2.52); control antibody.
Assay [13] concerns the target HLA-DR (human). In words: indirect flow cytometry, FITC-GAH Fc 2nd Ab, Ramos cells (none 3.1); negative control antibody.
Assay [14] has as its target HLA-DR (human). In words: indirect FACS, FITC-GAH Fc 2nd Ab, Daudi cells (none 3.1); control antibody.
The target of assay [15] is HLA-DR (human). Briefly: indirect flow cytometry, FITC-GAH Fc 2nd Ab, WSU-FSCCL cells (none 2.7); negative control antibody.
The target of assay [16] is antigen on dog lymphoma cells recognised by L243 and hL243 (dog). In words: flow cytometry on dog lymphoma aspirate, humanized MAbs (none 4.48); control antibody.
Assay [17] has as its target HLA-DR (human). Briefly: indirect flow cytometry on Namalwa cells, FITC-GAM 2nd Ab (none 2.91); control antibody.
Assay [18] concerns the target human serum complement (human). Briefly: cell-based or functional assay.

B1: hMN-14 (antibody, INN chains, looked up, V domains shown)
VH: EVQLVESGGGVVQPGRSLRLSCSASGFDFTTYWMSWVRQAPGKGLEWIGEIHPDSSTINYAPSLKDRFTISRDNAKNTLFLQMDSLRPEDTGVYFCASLYFGFPWFAYWGQGTPVTVSS
VL: DIQLTQSPSSLSASVGDRVTITCKASQDVGTSVAWYQQKPGKAPKLLIYWTSTRHTGVPSRFSGSGSGTDFTFTISSLQPEDIATYYCQQYSLYRSFGQGTKVEIKR
On to B1, for which the Geometric Mean Fluorescence worked out at 2.36 in the assay with HLA-DR (human) [1]; 7 with HLA-DR (human) [2]; 2.66 with HLA-DR (human) [4]; 2.4 with HLA-DR (human) [5]; 4.9 with HLA-DR (human) [6]; 4.94 with HLA-DR (human) [7]. For the same molecule, the Geometric Mean Fluorescence in the assay with HLA-DR (human) [8] was determined as 6.96; in the assay with HLA-DR (human) [9] it was 3.2; in the assay with HLA-DR (human) [10], 2.8; with HLA-DR (human) [11], 3.13; with HLA-DR (human) [13] it was 3.1; with HLA-DR (human) [14], 3.16. Also, the Geometric Mean Fluorescence with HLA-DR (human) [15] was 2.7. In addition, the Mean FL in assay [3] was found to be 3.24. In the assay with HLA-DR (human) [12], this molecule showed a GEO MEAN Fluorescence of 2.49. Moreover, the % in assay [16] stood at 4.63%.

B2: MN14 (murine) (antibody, from a related filing, V domains shown)
VH: EVKLLESGGGLVQSGGSLKLSCAASGFDFTTYWMSWVRQAPGKGLEWIGEIHPDSSTINYAPSLKDKFIVSRDNAKNTLYLQMSKVRSEDTALYYCASLYFGFPWFAYWGQGTPVTVSA
VL: EIQLTQSHKMMSTSVGDRVSITCKASQDVGTSVAWYQQRPGQSPKLLIYWTSTRHTGVPDRFTGSVSGTDFTLTITNVQSEDLADYFCQQYSLYRSFGGGTKLEIK
For the molecule B2, in the assay with HLA-DR (human) [17], the GEO MEAN Fluorescence came out at 3.32.

B3: hL243γ1 (antibody, human IgG1, V domains shown)
VH: QVQLQQSGSELKKPGASVKVSCKASGFTFTNYGMNWVKQAPGQGLKWMGWINTYTREPTYADDFKGRFAFSLDTSVSTAYLQISSLKADDTAVYFCARDITAVVPTGFDYWGQGSLVTVSS
VL: DIQLTQSPSSLSASVGDRVTITCRASENIYSNLAWYRQKPGKAPKLLVFAASNLADGVPSRFSGSGSGTDYTFTISSLQPEDIATYYCQHFWTTPWAFGGGTKLQIKR
As for B3, in assay [18], the complement-mediated cytotoxicity (CDC) on Daudi cells, resazurin viability, EC50 was 2.6 nM.
